Measured values from the RNAGym collection of RNA variant scans (doi:10.7554/elife.90254).

B1: LINE1-full (parent)
chain: UACGUAGGUGGUUUUCCCCUGAUAGUGCUAAGGGGGCCUGGAAGUUUGGACUGGGCAGAGCUCAACACAGCGUGGCAAAGUGGCUGUGGCUAGACUGCCUCUCUGGAUUCCUCGUCACUCAGCAGGGCAUCUCUGAGAGAAAUGCC

Variants of: B1
Assay: self-cleavage, relative activity (ratio to wild type); higher = more cleavage; in vitro, sequencing; the parent is a self-cleaving ribozyme
For UACGUAGGUGGUUUUCCCCUGAUAGUGCUAAGGGGGCCUGGAAGUUUGGACUGGGCAGAGCUCAACACAGCGUUGCAAAGUGGCUGUGGCUAGACUGCCUCUCUGGAUUCCUCGUCACUCUGCAGGGCAUCUCUGAGAGAAAUGCC [G74U A121U], the self-cleavage was 1.02.
For UACGUAGGUGGUUUUCCCCUGAUAGUGCUAAGGGGGCCUGGAAGUUUGGACUGGGCAGGGCUCAGCACAGCGUGGCAAAGUGGCUGUGGCUAGACUGCCUCUCUGGAUUCCUCGUCACUCAGCAGGGCAUCUCUGAGAGAAAUGCC [A59G A65G], the self-cleavage was 0.11.
Work on UACGUAGGUGGUUUUCCCCUGAUAGUGCUAAGGGGGCCUGGAUGUUUGGACUGGGCAGAGCUCAACACAGCGUGGCAAAGUGGCUGUGGCUAGACUGCCUCUCUGGAUUCCUCGUCACCCAGCAGGGCAUCUCUGAGAGAAAUGCC [A43U U119C] yielded a self-cleavage of 1.17.
UUCGUAGGUGGUUUUCCCCUGAUAGUGCCAAGGGGGCCUGGAAGUUUGGACUGGGCAGAGCUCAACACAGCGUGGCAAAGUGGCUGUGGCUAGACUGCCUCUCUGGAUUCCUCGUCACUCAGCAGGGCAUCUCUGAGAGAAAUGCC [A2U U29C] showed a self-cleavage of 0.98.
In the case of UACGCAGGUGGUUUUCCCCUGAUAGUGCUCAGGGGGCCUGGAAGUUUGGACUGGGCAGAGCUCAACACAGCGUGGCAAAGUGGCUGUGGCUAGACUGCCUCUCUGGAUUCCUCGUCACUCAGCAGGGCAUCUCUGAGAGAAAUGCC [U5C A30C], the self-cleavage is reported as 0.28.
For UACGUAGGUGGUUUUCCCCUGAUGGUGCUAAGGGGGCCUGGAAGUUUGGACUGGGCAGAGCUCAACACAGCGUGGCAAAGUGGCUGUGGCUAGACUGCCUCUCUGGAUUCCUCGUCACUCAGCAGGGCAUCUCUGAGUGAAAUGCC [A24G A138U], the self-cleavage was 1.43.
Variant UACGUAGGUGGUUUUCCCCUGAUAGUGCUAAGGGGGCCUGGAAGUUUGCACUGGGCAGAGCUCAACACAGCGUGGCAAAGUGGCUGUGGCUAGACUGCCUCUCUGGAUUCCUCGUCACUCAGCAGGGCAUCUCUGAGAGAAAUGCC [G49C] has a self-cleavage of 1.15.
For UACGUAGGUGGUUUUCCCCUGAUAGUGCUAAGGGGGCCUGGAAGUUUGGACUGGGCAGAGCUCAACACAGCGUGGCAAAGUGGCUGUGGCUAGACUGCCUCUCUGGAUUCCUCGACACUCAGCAGGGCAUCUUUGAGAGAAAUGCC [U115A C133U], the self-cleavage was 1.04.
UACGUAGGUGGUUUUCCCCUGAUAGUGCUAAGGGGGCCAGGAAGUUUGGACUGGGCAGAGCUCAACACAGCGUGGCAAAGUGGCUGUGGCUAGACUGCCUCUCUGGAUUCCUCAUCACUCAGCAGGGCAUCUCUGAGAGAAAUGCC [U39A G114A] gave a self-cleavage of 1.19.
For UACGCAGGUGGUUUUCCCCUGAUAGUGCUAAGAGGGCCUGGAAGUUUGGACUGGGCAGAGCUCAACACAGCGUGGCAAAGUGGCUGUGGCUAGACUGCCUCUCUGGAUUCCUCGUCACUCAGCAGGGCAUCUCUGAGAGAAAUGCC [U5C G33A], the self-cleavage was 1.45.
UACGUAGGUGGUUUUCCCCUGAUAGUGCUAAGGGGGCCUGGAAGUUUGGACUGGGCAGAGCUCAACACAGCGUGGCAAAGUGGCUGUGGCUAGACUGGCUCUCUGGAUUCCUCGUCACUCAGCAGGGCAUCUCUGAGAGAAAUGCC [C98G] gave a self-cleavage of 0.13.
Work on UACGUAGGUGGUUUUCCCCUGAUAGUGCUAAGGGGGCCUGGAAGUUUGGACUGGGCAGAGCUCAACACAGCGUGGCAAAGUGGCUGUGGCUAGACUGCCUCUCUGGAUUUCUAGUCACUCAGCAGGGCAUCUCUGAGAGAAAUGCC [C110U C113A] yielded a self-cleavage of 1.35.
Variant UACGUAGGUGGUUUUCCCCUGAUAGUGCUAAGGGGGCCUGGAAGUUUGGACUGGGCAGAGCUCAACACAGCGUGGCAAAGUGGCUGUGGCUAGACUGCCUUUCUGGGUUCCUCGUCACUCAGCAGGGCAUCUCUGAGAGAAAUGCC [C101U A107G] has a self-cleavage of 1.73.
Variant UACGUAGGUGGUUUUCCCCUGAUAGUGCUAAGGGGGCCUGGAAGUUUGGACUGGGCAGAGCUCAACACAGCGUGGCAAAGUGGCUGUGGCUAGACUGCCUCUCUGGGUUCCUCGUCACUCAGCAGGGCAACUCUGAGAGAAAUGCC [A107G U130A] has a self-cleavage of 1.74.
Work on UACGUAGGUGGUUUUCCCCUGAUAGUGCUAAGGGGGCCUGGAAGUUUGGACUGGGCAGAGCUCAACACAGCGUGGCUAAGUGGCUGUGGCUAGACUGCCUCUCUGGAUUCCUCGUCACUCAGCAGGGCAUCUCUGAGAGAAACGCC [A77U U143C] yielded a self-cleavage of 1.04.
UACGUAGGUGGUUUUCCCCUGAUAGUGCUAAGGGGGCCUGGAAGUUUGGACUGGGCAGAGCUCAACACAGCGUGGCAAAGUGGCUGGGGCUAGACUGCCUCUCAGGAUUCCUCGUCACUCAGCAGGGCAUCUCUGAGAGAAAUGCC [U87G U104A] gave a self-cleavage of 0.2.
Work on UACGUAGGUGGUUUUCCCCUGAUAGUGCUAAGGGGGCCUGGAAGCUUGGACUGGGCAGAGCUCAACACAGCGUGGCAAAGUGGCUGUGGCUAGACUGCCUCUCUGGAUUCUUCGUCACUCAGCAGGGCAUCUCUGAGAGAAAUGCC [U45C C111U] yielded a self-cleavage of 1.51.
For UACGUAGGUGGUUUUCCCCUGAUUGUGCUAAGGGGGCCUGGAAGUUUGGACUGGGCAGAGCUCAACACAGCGUGGCAAAGUGGCUGUGGCUAGACUGCCUCUCUGGAUUCCUCGUCACUCAGCAGGGCAUCACUGAGAGAAAUGCC [A24U U132A], the self-cleavage was 1.59.
UACGUAGGUGGUUUUCCCCUGAUAGUGCUAAGGGGGCCUGGAAGUUGGGACUGGGCAGAGCUCAACACAGCGUGGCAAAGUGGCUGUGGCUAGACUGCCUCUCUGGAUUCCUCGUCACUCAGCAGGGCAUCUCUGAGAGAAACGCC [U47G U143C] showed a self-cleavage of 1.31.
Variant UACGUAGGUGGUUUUCCCCUGAUAGUGCUAAGGGGGCCUGGAAGUUUGGACUGGGCAGAGCUCUACACAGCGUGGCAAAGUGGCUGCGGCUAGACUGCCUCUCUGGAUUCCUCGUCACUCAGCAGGGCAUCUCUGAGAGAAAUGCC [A64U U87C] has a self-cleavage of 0.12.
Variant UACGUAGGUGGUUUUCCCCUGAUAGUGCUAAGGGGGCCUGGAAGUUUGGUCUGGGCAGAGCUUAACACAGCGUGGCAAAGUGGCUGUGGCUAGACUGCCUCUCUGGAUUCCUCGUCACUCAGCAGGGCAUCUCUGAGAGAAAUGCC [A50U C63U] has a self-cleavage of 0.2.
Work on UACGUAGGUGGUUUUCCCCUGAUAGUGCUAAGGGGGCCUGGAAGUUUUGACUGGGCAGAGCUCAACACAGCGUGGCAAAGUGGCUGUGGCUAGACUGCCUCCCUGGAUUCCUCGUCACUCAGCAGGGCAUCUCUGAGAGAAAUGCC [G48U U102C] yielded a self-cleavage of 1.43.
UACGUAGGUGGUUUUCCCCUGAAAGUGCUAAGGGGGCCUGGAAGUUUGGGCUGGGCAGAGCUCAACACAGCGUGGCAAAGUGGCUGUGGCUAGACUGCCUCUCUGGAUUCCUCGUCACUCAGCAGGGCAUCUCUGAGAGAAAUGCC [U23A A50G] gave a self-cleavage of 1.25.
In the case of UACGUAGGUGGUUUUCCCCUGAUAGUGCUAAAGGGGCCUGGAAGUUUGGACUGGGCAGAGCUCAACACAGCGUGGCAAAGUGGCUGAGGCUAGACUGCCUCUCUGGAUUCCUCGUCACUCAGCAGGGCAUCUCUGAGAGAAAUGCC [G32A U87A], the self-cleavage is reported as 0.03.
UACGUAGGUGGUUUUCCCCUGAUAGAGCUAAGGGGGCCUGGAAGUUUGGACUGGGCAGAGCUCAACACAGCGUGGCAAAGUGGCUGUGGCUAGACUGCCUCUCUGGAUUCCUCGUCACUCAACAGGGCAUCUCUGAGAGAAAUGCC [U26A G122A] showed a self-cleavage of 0.72.
UACGUAGGUGGUUUUCCCCUGAUAGUGCUAAGGGGGCCUGGAAGUUUGGACUGGGCAGAGCUCAACACAGCGUGGCAAAGUGGUUGUGGCUAGACUGCCUCUCUGGAUUCCUCGUCGCUCAGCAGGGCAUCUCUGAGAGAAAUGCC [C84U A117G] gave a self-cleavage of 0.2.
Variant UACGUAGGUGGUUUUCCCCUGAUAGUGCUAAGGGGGCCUGGAAGUUUGGACAGGGCAGAGCUCAGCACAGCGUGGCAAAGUGGCUGUGGCUAGACUGCCUCUCUGGAUUCCUCGUCACUCAGCAGGGCAUCUCUGAGAGAAAUGCC [U52A A65G] has a self-cleavage of 0.04.
UACGUAGGUGGUUUUCCCCUGAUAGUGCUAAGGGGGCCUGGAAGUUUGGACUGGGCAGAGCUCAACACAGCGUGGCUAAGUGGCUGUGACUAGACUGCCUCUCUGGAUUCCUCGUCACUCAGCAGGGCAUCUCUGAGAGAAAUGCC [A77U G89A] gave a self-cleavage of 0.06.
In the case of UACGUAGGUGGUUUUCCCCUGAUAGUGCUAAGGGGGCCUGGAAGUUUGGUCUGGGCAGAGCUCAACACAGCGUGGCAAAGUGGCUGUGGCUAGACUGCCUCUCUGGAGUCCUCGUCACUCAGCAGGGCAUCUCUGAGAGAAAUGCC [A50U U108G], the self-cleavage is reported as 1.11.
For UACGUAGGUGGUUUUCCCCUGAUAGUGCUAAGCGGGCCUGGAAGUUUGGACUGGGCAGAGCUCAGCACAGCGUGGCAAAGUGGCUGUGGCUAGACUGCCUCUCUGGAUUCCUCGUCACUCAGCAGGGCAUCUCUGAGAGAAAUGCC [G33C A65G], the self-cleavage was 0.
UACGUAGGUGGUUUUCCCCUGAUAGUGCUAAGGGGGCCAGGAAGUUUGGACUGGGCAGAGCUCAACACAGCGUGGCAAAGUGGCUGUGGCUAGACUGCCUCUCUGGAUUCCUCGUCACUCAGCAGGGCAUCUCCGAGAGAAAUGCC [U39A U134C] gave a self-cleavage of 1.3.
In the case of UACGUAGGUGGUUUUCCCCUGAUAGUGCUAAGGGGGCCUGGAAGCUUGGACUGGGCAGAGCUCGACACAGCGUGGCAAAGUGGCUGUGGCUAGACUGCCUCUCUGGAUUCCUCGUCACUCAGCAGGGCAUCUCUGAGAGAAAUGCC [U45C A64G], the self-cleavage is reported as 0.22.
For UACGUAGGUGGUUUUCCCCUGAUAGUGCUAAGGGGGCCUGGAAGUUUGGACUGGGCGGAGCUCAACACAGCGUGGCAAAGUGGCUGUGGCUAGACUGCCUCUCUGGAUUCCUCGUCACUCAGCAGUGCAUCUCUGAGAGAAAUGCC [A57G G126U], the self-cleavage was 0.65.
UACGUAGGUGGUUUUCCCCUGAUAGUGCUAAGGGGGCCUGGAAGUUUGGACUGGGCAGUGCUCAACACAGCGUGGCAAAGUGGCUGUGGCUAGACUGCCUCUCUGGAUUCCUCGUCACUCAGCAGGGCAUCUCUGGGAGAAAUGCC [A59U A136G] showed a self-cleavage of 1.1.
Work on UACGUAGGUGGUUUUCCCCCGAUAGUGCUAAGGGGGCCUGGAAGUUUGGACUGGGCAGAGCUCAACACAGUGUGGCAAAGUGGCUGUGGCUAGACUGCCUCUCUGGAUUCCUCGUCACUCAGCAGGGCAUCUCUGAGAGAAAUGCC [U20C C71U] yielded a self-cleavage of 0.77.
With UACGUAGGUGGUUUUCCCCUGAUAGUGCUAAGGGGGCCUGGAAGUUUGGACCGGGCAGAGCUCAACACAGCGUGGCAAAGUGGCUGUGGCUAGACUGCCUCUCUGGAUUCCUCGUCCCUCAGCAGGGCAUCUCUGAGAGAAAUGCC [U52C A117C] the self-cleavage was 0.42.
In the case of UACGUAGGUGGUUUUCCCCUGAUGGUGCUAAGGGGGCCUGGAAGUUUGGACUGGGCAGAGCUCAACACAGCGUGGCAAAGUGGCUGUGGCUAGACUGCCUCUCUGGAUUCCUCGUCACUCAGCAGGGCAUCUCUGAGAGGAAUGCC [A24G A140G], the self-cleavage is reported as 1.68.
UACGUAGGUGGUUUUCCCCUGAUAGUGCUAAGGGGGCCUGGAAGUUUGGACUGGGCAGAGCUCAACACAGCGUGGCAAAGUGGCUGUGGCUAGACUGCCUCUCUGGAUCCCUCGUCACUCAGCUGGGCAUCUCUGAGAGAAAUGCC [U109C A124U] gave a self-cleavage of 1.64.
UACGUAGGUGGUUUUCCCCUGAUAGUGCUAAGGGGGCCUGGAAGUUUGGACUGGGCAGAGCUCAACACAGCGUGGCAAAGUGGCUGUGGCUAGACCGCCUCUCUGGAUUCCUCGUCACUCAGCAGGGCAUCUCUGAGAGGAAUGCC [U96C A140G] gave a self-cleavage of 0.09.
